Tests used:
[1] = system: T1, MMP-cleavable crosslinker KLGPAK (Lys-Leu-Gly-Pro-Ala-Lys)
T1 sequence: KLGPAK

[2] = system: T2, plasmin-cleavable crosslinker KNRVK (bisacryloylated Lys-Asn-Arg-Val-Lys)
T2 sequence: KNRVK

Sequence of plasmin (P00747 20-580): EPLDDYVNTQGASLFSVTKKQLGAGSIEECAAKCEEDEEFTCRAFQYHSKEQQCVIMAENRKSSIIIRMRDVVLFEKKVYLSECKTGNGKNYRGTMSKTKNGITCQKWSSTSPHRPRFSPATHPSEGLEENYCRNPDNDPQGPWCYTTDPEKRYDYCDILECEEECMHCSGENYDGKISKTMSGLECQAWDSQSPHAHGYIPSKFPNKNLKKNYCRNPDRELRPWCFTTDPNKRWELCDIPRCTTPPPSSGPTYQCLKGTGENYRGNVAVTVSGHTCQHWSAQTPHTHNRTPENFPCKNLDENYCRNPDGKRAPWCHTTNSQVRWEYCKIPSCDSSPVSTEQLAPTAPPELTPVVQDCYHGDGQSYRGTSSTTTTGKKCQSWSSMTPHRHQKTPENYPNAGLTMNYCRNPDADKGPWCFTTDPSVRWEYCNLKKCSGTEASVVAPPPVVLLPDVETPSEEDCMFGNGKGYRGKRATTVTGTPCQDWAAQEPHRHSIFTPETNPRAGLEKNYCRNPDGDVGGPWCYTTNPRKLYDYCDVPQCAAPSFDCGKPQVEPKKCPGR
Sequence of plasmin (P00747 581-810): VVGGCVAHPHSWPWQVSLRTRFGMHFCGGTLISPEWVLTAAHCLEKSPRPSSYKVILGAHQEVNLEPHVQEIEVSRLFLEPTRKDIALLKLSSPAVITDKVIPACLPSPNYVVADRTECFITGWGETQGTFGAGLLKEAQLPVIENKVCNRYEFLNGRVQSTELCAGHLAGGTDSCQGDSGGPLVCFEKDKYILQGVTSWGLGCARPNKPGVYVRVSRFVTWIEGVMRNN

| Substance | degradation of the polymer shells of nBSALGPA (DLS) [1] | release of BSA from nBSANRV (SDS-PAGE, 30 min) [2] | release of BSA from nBSALGPA (SDS-PAGE, 30 min) [1] | VEGF released from nVEGF formed with 100% degradable crosslinker (ELISA, with plasmin) [2] | release percentage of VEGF from de-nVEGFplasmin (100%-peptide crosslinker) (ELISA) [2] | release of VEGF from de-nVEGFplasmin (100%-peptide crosslinker) (ELISA) [2] |
| --- | --- | --- | --- | --- | --- | --- |
| collagenase (a bacterial equivalent of MMP) | Exposing nBSALGPA to collagenase results in specific degradation of the polymer shells | nBSANRV without exposure to plasmin (line 2) or after exposure to collagenase (line 4) does not show any well-defined band | – | – | – | – |
| plasmin | – | does exhibit a well-defined band (line 3) similar to that of native BSA upon exposure to plasmin | plasmin is incapable of triggering release of BSA from MMP-specific nBSALGPA | released 95% of the VEGF used to form the nanocapsules | plasmin-incubated nVEGF showed about 60% release percentage | – |
| trypsin | – | – | – | – | – | only extended periods of incubation with trypsin and collagenase IV had releases of VEGF |
